Read-outs that look alike come from different tables or passages of the source. Marks after values point to notes of the source that are not given here. *1 amine or outer side, *2 acyl side, *3 side chain or, on linkers, in order; H or OH if unused. Where a SMILES comes first, the peptide text is derived from it. [ ]: non-standard residue; d: D form. The star is where a group is joined. Exatecan = CC[C@@]1(O)C(=O)OCc2c1cc1n(c2=O)Cc2c-1nc1cc(F)c(C)c3c1c2[C@@H](N*)CC3; Hexanoyl(6-maleimido) = O=C1C=CC(=O)N1CCCCCC(=O)*; X1 = C[C@@H](OCN[*:1])C(=O)[*:2]; X2 = O=C(COCCOCN[*:1])[*:2]
What was measured:
[1] = Assay 8: stability of linker-drug compounds; type: physicochemical; settings: high temperature, high humidity, illumination or 0.5% BSA-PBS; LC-MS/MS; Deruxtecan also studied
Protocol: Different linker-drug compounds such as Deruxtecan, JSSW-001, and ZW-002 were studied under high temperature (40° C., 60° C.), high humidity (25° C./75% RH and 25° C./92.5% RH), illumination (illuminance 4500 Lux, near-UV energy […]), or 0.5% BSA-PBS conditions. Samples were collected at different times after exposure to these conditions, and the concentration changes of the linker-drug compounds in the samples were detected using the LC-MS/MS method.

[2] = system: human colorectal cancer DiFi xenograft tumour; test: Assay 16: efficacy of patritumab-ADC on DiFi xenograft tumour; type: in vivo, NU/NU mice; settings: Table 29: 10 mg/kg i.v./qw*3w
Text: The assay was terminated on day 28 after the administration.

[3] = system: human lung adenocarcinoma PC9-GR (gefitinib-resistant cell) xenograft tumour; test: Assay 3: efficacy of patritumab-ADC on PC9-GR xenograft tumour; type: in vivo, NU/NU mice; settings: 3 mg/kg i.v./qw*4 w
[4] = system: human colon cancer SW620 xenograft tumour; test: Assay 15: efficacy of patritumab-ADC on SW620 xenograft tumour; type: in vivo, NU/NU mice; settings: 7 mg/kg i.v./single administration
Text: The assay was terminated on day 26 after the administration. The inhibition effects of patritumab-DXD ADC (DAR=7.3) and patritumab-JSSW-001 ADC (DAR=7.36) on human colon cancer SW620 xenograft tumour in nude mice were compared.

[5] = Phase Ib, cited from earlier work
[6] = more active than the common chemotherapy drug irinotecan; cited from earlier work
[7] = early data published by the company; cited from earlier work
EGFR on MDA-MB-468 cells [8] = molecular target: T1, EGFR on MDA-MB-468 cells (human, UniProt P00533 25-1210); test: flow cytometry on MDA-MB-468 cells, antibody diluted in PBS pH 6.0, FITC anti-human Fc
T1 construct: whole, on cells; also called epidermal growth factor receptor; HER1

EGFR on MDA-MB-468 cells [9] = molecular target: T1, EGFR on MDA-MB-468 cells; test: flow cytometry on MDA-MB-468 cells, pH 7.4; ratio of EC50 to SWY2110
EGFR on MDA-MB-468 cells [10] = molecular target: T1, EGFR on MDA-MB-468 cells; test: flow cytometry on MDA-MB-468 cells, pH 6.0; ratio of EC50 to SWY2110
EGFR on MDA-MB-468 cells [11] = molecular target: T1, EGFR on MDA-MB-468 cells; test: flow cytometry on MDA-MB-468 cells, antibody diluted in PBS pH 7.4, FITC anti-human Fc

Molecule: CC[C@@]1(O)C(=O)OCc2c1cc1n(c2=O)Cc2c-1nc1cc(F)c(C)c3c1c2[C@@H](NC(=O)[C@@H](C)OCNC(=O)CNC(=O)[C@H](Cc1ccccc1)NC(=O)CNC(=O)CNC(=O)CCCCCN1C(=O)C=CC1=O)CC3 [JSSW-001, N-((2R,10S)-10-benzyl-1-(((1S,9S)-9-ethyl-5-fluoro-9-hydroxy-4-methyl-10,13-dioxo-2,3,9,10,13,15-hexahydro-1H,12H-benzo[de]pyrano[3′,4′:6,7]indolizino[1,2-b]quinolin-1-yl)amino)-2-methyl-1,6,9,12,15-pentaoxo-3-oxa-5,8,11,14-tetraazahexadecan-16-yl)-6-(2,5-dioxo-2,5-dihydro-1H-pyrrol-1-yl)hexanamide] ({Hexanoyl(6-maleimido)}-GGFG[X1]-Exatecan)
- stability of linker-drug compound [1]: better stability

Molecule: patritumab-DXD ADC (DAR = 7.3): patritumab antibody conjugated with commercially available Deruxtecan [reference compound]
- Tumour Volume ([2]; 28 days after administration): 512.5 ± 470.8* mm^3
- TGI(%) Day 28 [2]: 54.0%
- TGI(%) Day 28 [3]: 59.5%
- Tumour Volume ([3]; 28 days after administration): 373.4 ± 102.8** mm^3
- TGI(%) Day 21 [4]: 73.2%
- Tumour Volume ([4]; 21 days after administration): 461.3 ± 278.1*** mm^3

Molecule: MRG003
- objective response rate (ORR) ([5]; patients with nasopharyngeal carcinoma (4/9)): 44%
- objective response rate (ORR) ([5]; patients with non-small cell lung cancer (4/10)): 40%

Molecule: CC[C@@]1(O)C(=O)OCc2c1cc1n(c2=O)Cc2c-1nc1cc(F)c(C)c3c1c2[C@@H](NC(=O)COCCOCNC(=O)CNC(=O)[C@H](Cc1ccccc1)NC(=O)CNC(=O)CNC(=O)CCCCCN1C(=O)C=CC1=O)CC3 [ZW-002, N—((S)-13-benzyl-1-(((1S,9S)-9-ethyl-5-fluoro-9-hydroxy-4-methyl-10,13-dioxo-2,3,9,10,13,15-hexahydro-1H,12H-benzo[de]pyrano[3′,4′:6,7]indolizino[1,2-b]quinolin-1-yl)amino)-1,9,12,15,18-pentaoxo-3,6-dioxa-8,11,14,17-tetraazanonadecan-19-yl)-6-(2,5-dioxo-2,5-dihydro-1H-pyrrol-1-yl)hexanamide] ({Hexanoyl(6-maleimido)}-GGFG[X2]-Exatecan)
- stability of linker-drug compound [1]: better stability

Molecule: CC[C@@]1(O)C(=O)OCc2c1cc1n(c2=O)Cc2c-1nc1cc(F)c(C)c3c1c2[C@@H](NC(=O)CO)CC3 [DXd]
- activity relative to irinotecan [6]: 10 times

B1: BA3011 (conjugate, chains of the INN, looked up)
VH: EVQLVQSGAEVKKPGATVKISCKVSGYSFWGATMNWIRQPPGKGLEWIGLIKPSNGGTSYNQKFKGRVTISADKSISTAYLQWSSLKASDTAMYYCAHGHYESYEAMDYWGQGTLVTVSS
VL: DIQMTQSPSSLSASVGDRVTITCKASQDVVSAVAWYQQKPGQAPRLLIYWQDTRHTGVPSRFSGSGSGTEFTLTISSLQPDDFATYYCQEHFSPPLTFGQGTKVEIK
modifications: vedotin (MMAE) payload
- target-related toxicity [7]: no obvious target-related toxicity

B2: BA3021 (conjugate, chains of the INN, looked up)
VH: EVQLVQSGAEVKKPGESLRISCKGSGYTFTEYTMHWVRQAPGQGLEWMGGINTNNGGTGYNQKFKGRVTISADKSISTAYLQWSSLKASDTAMYYCAHGSLYSYGNSYFDYWGQGTLVTVSS
VL: AIQLTQSPSSLSASVGDRVTITCSATSSVSYMHWYLQKPGQSPQLLIYGTSNLASGVPDRFSGSGSGTDFTLKISRVEAEDVGVYYCQQRSSYPFTFGQGTKVEIK
modifications: vedotin (MMAE) payload
- target-related toxicity [7]: no obvious target-related toxicity

B3: EGFR antibody SWY2111 (antibody, human IgG1, kappa, V domains shown)
VH: QVQLQESGPGLVKPSETLSLTCTVSGFSLSDYDVHWVRQAPGKGLEWLGVIWSGGNTDYNTPFTSRLTISVDTSKNQFSLKLSSVTAADTAVYYCARALDDYDYEFAYWGQGTLVTVSS
VL: EIVLTQSPDFQSVTPKEKVTITCRASQSIGTNIHWYQQKPDQSPKLLIKYASESISGIPSRFSGSGSGTDFTLTINSLEAEDAATYYCQQNNEWPTSFGQGTKLEIKR
- EC50 (EGFR on MDA-MB-468 cells [8]): 0.6 nM
- fold decrease of affinity compared to SWY2110 (EGFR on MDA-MB-468 cells [9]): 3 times
- fold change of affinity compared to SWY2110 (EGFR on MDA-MB-468 cells [10]): 1.2 to 1.3 times
- EC50 (EGFR on MDA-MB-468 cells [11]): 1.45 nM

B4: EGFR antibody SWY2112 (antibody, human IgG1, kappa, V domains shown)
VH: QVQLQESGPGLVKPSETLSLTCTVSGFSLSEYDVHWVRQAPGKGLEWLGVIWSGGNTDYNTPFTSRLTISVDTSKNQFSLKLSSVTAADTAVYYCARALDDYDYEFAYWGQGTLVTVSS
VL: EIVLTQSPDFQSVTPKEKVTITCRASQSIGTNIHWYQQKPDQSPKLLIKYASESISGIPSRFSGSGSGTDFTLTINSLEAEDAATYYCQQNNEWPTSFGQGTKLEIKR
- EC50 (EGFR on MDA-MB-468 cells [8]): 0.67 nM
- fold change of affinity compared to SWY2110 (EGFR on MDA-MB-468 cells [10]): 1.2 to 1.3 times
- EC50 (EGFR on MDA-MB-468 cells [11]): 2.35 nM

B5: EGFR antibody SWY2113 (antibody, human IgG1, kappa, V domains shown)
VH: QVQLQESGPGLVKPSETLSLTCTVSGFSLSHYDVHWVRQAPGKGLEWLGVIWSGGNTDYNTPFTSRLTISVDTSKNQFSLKLSSVTAADTAVYYCARALDDYDYEFAYWGQGTLVTVSS
VL: EIVLTQSPDFQSVTPKEKVTITCRASQSIGTNIHWYQQKPDQSPKLLIKYASESISGIPSRFSGSGSGTDFTLTINSLEAEDAATYYCQQNNEWPTSFGQGTKLEIKR
- EC50 (EGFR on MDA-MB-468 cells [8]): 3.39 nM
- fold decrease of affinity compared to SWY2110 (EGFR on MDA-MB-468 cells [9]): 3 to 9.7 times
- fold decrease of affinity compared to SWY2110 (EGFR on MDA-MB-468 cells [10]): 6.6 times
- EC50 (EGFR on MDA-MB-468 cells [11]): 4.76 nM
